Data as given in US7132248 (dated 2006).

T1: rat GALR2 (rat)
T1 chain: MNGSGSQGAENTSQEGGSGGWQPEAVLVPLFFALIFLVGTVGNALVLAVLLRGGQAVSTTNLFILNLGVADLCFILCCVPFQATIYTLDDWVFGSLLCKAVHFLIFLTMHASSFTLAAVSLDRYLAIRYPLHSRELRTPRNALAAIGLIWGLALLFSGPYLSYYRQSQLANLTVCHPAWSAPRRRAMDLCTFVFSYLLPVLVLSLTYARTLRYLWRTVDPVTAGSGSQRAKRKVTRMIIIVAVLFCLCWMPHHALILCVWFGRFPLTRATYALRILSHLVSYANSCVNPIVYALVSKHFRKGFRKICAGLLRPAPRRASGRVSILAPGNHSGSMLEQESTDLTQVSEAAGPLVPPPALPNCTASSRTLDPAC

T2: human GALR2 (human)
T2 chain: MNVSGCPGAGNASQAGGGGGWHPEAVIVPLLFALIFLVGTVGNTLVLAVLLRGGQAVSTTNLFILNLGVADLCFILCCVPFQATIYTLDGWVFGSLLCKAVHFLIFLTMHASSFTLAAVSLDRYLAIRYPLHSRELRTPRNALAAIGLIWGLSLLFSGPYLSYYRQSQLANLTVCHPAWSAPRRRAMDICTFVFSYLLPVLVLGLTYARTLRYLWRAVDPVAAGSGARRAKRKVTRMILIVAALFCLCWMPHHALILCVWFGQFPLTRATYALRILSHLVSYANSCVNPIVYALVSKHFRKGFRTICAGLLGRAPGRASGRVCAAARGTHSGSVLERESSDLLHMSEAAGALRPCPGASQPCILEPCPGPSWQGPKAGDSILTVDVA

T3: rat GALR1 (rat, UniProt Q62805)
T3 chain: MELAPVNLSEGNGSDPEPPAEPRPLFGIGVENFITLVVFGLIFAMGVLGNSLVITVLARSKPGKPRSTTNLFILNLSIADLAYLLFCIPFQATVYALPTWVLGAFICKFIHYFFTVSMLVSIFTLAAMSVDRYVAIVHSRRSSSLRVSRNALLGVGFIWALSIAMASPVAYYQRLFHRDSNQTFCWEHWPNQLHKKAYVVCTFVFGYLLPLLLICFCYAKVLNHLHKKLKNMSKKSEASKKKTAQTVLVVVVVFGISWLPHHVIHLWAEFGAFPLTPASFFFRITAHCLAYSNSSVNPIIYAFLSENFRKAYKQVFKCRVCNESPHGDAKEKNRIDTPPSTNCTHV

B1: human galanin (protein)
chain: KRGWTLNSAGYLLGPHAVGNHRSFSDKNGLTSKRELRPEDDMKPGSFDRSIPENNIMRTIIEFLSFLHLKEAGALDRLLDLPAAASSEDIERS

What was measured:
[1] = biological target: T1, rat GALR2; assay: competition, radioligand CHO
[2] = biological target: T2, human GALR2; assay: competition, radioligand COS-7
[3] = biological target: T1, rat GALR2; assay: competition, radioligand COS-7
[4] = biological target: T1, rat GALR2; assay: competition, radioligand COS-7
[5] = biological target: T3, rat GALR1; assay: competition, radioligand COS-7

Row | Binder | Ki [1] | Ki [2] | other results
1 | MPRGCALLL [porcine galanin 1-9] | > 1000 nM |  | 
2 | MPRGCALLLASLLLAS [galanin (1-16)] |  | 15 nM | Ki [3]: 1.74 nM
3 | MARGSVILLAWLLLVATLSATLGLGMPTK [rat galanin] |  | 1 nM | Ki [4]: 0.52 nM
4 | B1 | 1.2 nM |  | 
5 | LASLLLASALSATLGLGSPVK [porcine galanin 9-29] | > 1000 nM |  | 
6 | RGCALLLASLLLASALSATLGLGSPVK [porcine galanin (3-29)] |  |  | Ki [3]: > 100000 nM
7 | ALSATLGLGSPVK [porcine galanin 17-29] | > 1000 nM |  | 
8 | MPRGCALLLASLLLASALSATLGLGSPVK [porcine galanin (1-29)] |  | 0.72 nM | Ki [5]: 0.457 nM
